Data on 18 sequences can be found in the supplement of paper PMC12764529.

Data set [1] in a line: folding stability dG unfold (combined trypsin and chymotrypsin); higher = more stable. The procedure, abridged:
(§1)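 Mini-proteins designed to be under 80 residues and free of cysteine were carried in a PA-tagged cDNA display construct and digested with trypsin and with chymotrypsin. Each protease was applied at 11 threefold-diluted concentrations, alongside a no-protease condition, before sequencing. K50 came from Bayesian fitting of the sequencing counts, and unfolding free energy was obtained by comparing it with a sequence-predicted unfolded-state K50 and a shared folded-state K50, for each protease separately or for both together. Designs were retained only if their AlphaFold2 dimer inter-PAE exceeded 15.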

The nature of data set [2]: folding stability dG unfold from trypsin proteolysis; higher = more stable. In outline: as §1
Data set [3] in a line: folding stability dG unfold from chymotrypsin proteolysis; higher = more stable. In outline: as §1

± gives the half width of the 95% confidence interval.

Consider “SAGGSAGGSAMITSDDLEKLLKKLGIDPKKLGPEKLAKIFKELYPDAIITADPEGKAYIYPSAGGSAGGSAG [r3_375_TrMRF]”, for which the “folding stability dG unfold” value in data set [1] came out at 1.2 ± 0.14 kcal/mol; in data set [2] it was 1.72 ± 0.07 kcal/mol; in data set [3], 0.467 ± 0.19 kcal/mol.
“SAGGSAGGSAMIVTEEGNTITITTLTNLTFPTTGATSTATTTTTITLPPTPLFPVPRTDNSLSAGGSAGGSA [r18_501_JUSTAS]”: the “folding stability dG unfold” value in data set [1] is 0.44 ± 0.24 kcal/mol; in data set [2], -0.21 ± 0.11 kcal/mol; in data set [3], 0.819 ± 0.12 kcal/mol.
Taken in the same sequence, the figures for “SAGGSAGGSAMKIKIEVVKNKNGYYYLKVEIEVNGKKIEITIKVPKNEKVSIEELLKKILKKSAGGSAGGSA [r18_111_TrROS_Hall]” were 4.07 ± 0.16 kcal/mol, 2.78 ± 0.12 kcal/mol and 4.55 ± 0.12 kcal/mol.
In the case of “SAGGSAGGSAMKKVTITLLDPRNGKEHTVTLPADITEEEAKAAAEAVAAERGWEVLSIEFEPSAGGSAGGSA [r18_322_JUSTAS]”, the “folding stability dG unfold” value in data set [1] worked out at 3.57 ± 0.071 kcal/mol; in data set [2], 3.61 ± 0.072 kcal/mol; in data set [3], 3.43 ± 0.1 kcal/mol.
On to “SAGGSAGGSAMKLKVPTKDGKVYEVTVVDYDPENEKVVVKNPDTDELYTFSLEDFKKILEANSAGGSAGGSA [r18_161_TrMRF]”, for which the entries for the “folding stability dG unfold” value in data set [1], in data set [2] and in data set [3] were 3.36 ± 0.12 kcal/mol, 2.72 ± 0.17 kcal/mol and 3.55 ± 0.08 kcal/mol, respectively.
Taken in the same sequence, the figures for “SAGGSAGGSAMKTIEIDIVIKNKETGEYYKAKAKIFENEDGSLIIEIEFEKNGKTLLIVLPPSAGGSAGGSA [r18_426_TrROS_Hall]” were 3.61 ± 0.2 kcal/mol, 3.31 ± 0.096 kcal/mol and 3.82 ± 0.11 kcal/mol.
Take “SAGGSAGGSAMKTIPVKTKEEAEKLAEELKASGYGEVKKTKSGNIIVKAPDGIDVKIVVPEKSAGGSAGGSA [r18_126_JUSTAS]”: the “folding stability dG unfold” value in data set [1] is 0.574 ± 0.19 kcal/mol; in data set [2] it was 0.098 ± 0.068 kcal/mol; in data set [3], 0.712 ± 0.072 kcal/mol.
Taken in the same sequence, the figures for “SAGGSAGGSAMLIVGGADPEGAAEAAEEFIAAIEKAAEELGIPPEHIEIPVLIAEPGEAPGSAGGSAGGSAG [r3_249_TrMRF]” were 0.834 ± 0.12 kcal/mol, 1.19 ± 0.056 kcal/mol and 0.289 ± 0.052 kcal/mol.
In the same order, the values of “SAGGSAGGSAMLRIKIYYKKNGEEYEIEVEGSLEEALKEAAKKLGLSEDEIKKIEIEELPESAGGSAGGSAG [r3_79_TrROS_Hall]” are 3.41 ± 0.2 kcal/mol, 2.66 ± 0.12 kcal/mol and 3.73 ± 0.086 kcal/mol.
Taken in the same sequence, the figures for “SAGGSAGGSAMLRIRFENGLEIEIPKDMTLEELKKLAEELAEELKKEGKEVEVKIVEIEPVPSAGGSAGGSA [r18_213_TrROS_Hall]” were 2.03 ± 0.075 kcal/mol, 1.65 ± 0.044 kcal/mol and 2.21 ± 0.029 kcal/mol.
“SAGGSAGGSAMLTKITITFEKPGTDETFTKPIDVPPDNPEEAIKAIKEELKKKGYKVKSVILSAGGSAGGSA [r18_3_JUSTAS]”: the “folding stability dG unfold” value in data set [1] is 1.57 ± 0.15 kcal/mol; in data set [2], 1.28 ± 0.078 kcal/mol; in data set [3] it was 1.73 ± 0.074 kcal/mol.
As to “SAGGSAGGSAMLYRITVRNADGEKLEIVVEMSEDEVRALAEELRKAGYEVRVEPIPEGEEPSAGGSAGGSAG [r3_35_TrROS_Hall]”, the “folding stability dG unfold” value in data set [1] was 4.8 ± 0.15 kcal/mol; in data set [2] it was 4.89 ± 0.21 kcal/mol; in data set [3] it was 4.79 ± 0.11 kcal/mol.
Taken in the same sequence, the figures for “SAGGSAGGSAMPKTTVYTIPYESDEEAEARIEEIKAEARARNPEAKVTVTPAGESVNVTIVGSAGGSAGGSA [r18_469_JUSTAS]” were -0.376 ± 0.2 kcal/mol, -0.7 ± 0.34 kcal/mol and -0.116 ± 0.19 kcal/mol.
For the sequence “SAGGSAGGSAMPLTSPEEAARHIKEALERLFPSSFPDRVIDPDVVVFTRPDGRVVALVKLKASAGGSAGGSA [r18_440_TrMRF]”, the results for the “folding stability dG unfold” value in data set [1], in data set [2] and in data set [3] were 1.11 ± 0.068 kcal/mol, 0.877 ± 0.023 kcal/mol and 1.27 ± 0.073 kcal/mol, respectively.
In the same order, the values of “SAGGSAGGSAMPVKVKVTVKARFGDKEFELEFEIEVGPGATEEDIKNLVTEKYPGFEEVELESAGGSAGGSA [r18_195_JUSTAS]” are 2.16 ± 0.12 kcal/mol, 1.92 ± 0.083 kcal/mol and 2.16 ± 0.11 kcal/mol.
As to “SAGGSAGGSAMQRDPDGKPQPQVTFRIPADDMPEEQIKKHLPPEFADNFRDNMPEGDTITLSAGGSAGGSAG [r3_326_TrROS]”, the “folding stability dG unfold” value in data set [1] was -0.239 ± 0.14 kcal/mol; in data set [2], -0.688 ± 0.19 kcal/mol; in data set [3], -0.105 ± 0.25 kcal/mol.
For “SAGGSAGGSAMTFFVAVVKTETRVLPDGSLETRSSIEVKPVPAIPAEDLIKKLGLPLEDIASAGGSAGGSAG [r3_338_TrMRF]”, the results for the “folding stability dG unfold” value in data set [1], in data set [2] and in data set [3] were 2.61 ± 0.14 kcal/mol, 2.13 ± 0.041 kcal/mol and 3.14 ± 0.053 kcal/mol, respectively.
As to “SAGGSAGGSAMTFKSPEEAKKAAEELEKKTGYKIKITKIEVNEDGEKTVKIEILPPGEKLKSAGGSAGGSAG [r3_59_TrROS_Hall]”, the “folding stability dG unfold” value was 0.284 ± 0.1 kcal/mol in data set [1], -0.238 ± 0.092 kcal/mol in data set [2] and 0.544 ± 0.12 kcal/mol in data set [3].
